What all share (assay): SEC; gel filtration on Superdex 200 (AKTA-FPLC) followed by SDS-PAGE; P proteins released from GST by thrombin; P particles form a peak at ~830 kDa and the P dimer at ~69 kDa
(In general: SEC sorts molecules by how far they enter the pores of the column.)

Experiment [1] deals with VA207 (GII-9) norovirus P domain with C-terminal … peptide, wild type (P particle / P dimer) (norovirus strain VA207 (GII-9)).
The target of experiment [2] is Boxer (GI-8) norovirus P domain with C-terminal … peptide, wild type (P particle / P dimer) (norovirus strain Boxer (GI-8)).
Experiment [3] concerns the target MOH (GII-5) norovirus P domain with C-terminal … peptide, wild type (P particle / P dimer) (norovirus strain MOH (GII-5)).
Experiment [4] has as its target Norwalk virus (GI-1) P domain with N-terminal CNGRC peptide, wild type (P particle / P dimer) (Norwalk virus (GI-1)).

Here are results for four substances from article PMC2660415.

For “VA207 (GII-9) norovirus P domain with C-terminal … peptide, wild type (P particle / P dimer) (domain or fragment)”, in experiment [1], the efficiency of P particle formation came out at 90%.

“Boxer (GI-8) norovirus P domain with C-terminal … peptide, wild type (P particle / P dimer) (domain or fragment)”: the efficiency of P particle formation in experiment [2] came out at 80%.

Consider “MOH (GII-5) norovirus P domain with C-terminal … peptide, wild type (P particle / P dimer) (domain or fragment)”, for which the efficiency of P particle formation in experiment [3] was 80%.

“Norwalk virus (GI-1) P domain with N-terminal CNGRC peptide, wild type (P particle / P dimer) (domain or fragment)”: the efficiency of P particle formation in experiment [4] was determined as 70%.
